Target: T1, SARS-CoV-2 WA-1 RBD protein (SARS-CoV-2, UniProt P0DTC2 319-541)
T1 construct: domain: RBD
Assay: ELISA, plate coated with WA1 RBD

B1: B2-269.1 (antibody, V domains shown)
VH: EVQLVESGGGLVQPGGSLRLSCAASGITVSSNYMSWVRQPPGKGLDWVSLIFSGGSTYYADSVKGRFTISRDNSKNTLYLQMNSLRAEDTAVYYCARVGVAVAGTDYDIWGQGTMVTVSS
VL: DIQMTQSPSSLSASVGDRVTITCQASQDINKYLNWYQQKPGKAPKLLIYDASNLETGVPSRFSGSGSGTDFTFTISSLQPEDIATYYCLHYENLPLSFGGGTKVEIK
EC50 (read off the curve): ~4 ng/mL

From patent US20260209317A1 (US Dept. of Health and Human Services, published 2026)
